Target: CD20 (B-lymphocyte antigen CD20) (human) (UniProt P11836)
Experiment: cell-based or functional assay

CD20 (B-lymphocyte antigen CD20) (human), sequence (P11836 whole entry): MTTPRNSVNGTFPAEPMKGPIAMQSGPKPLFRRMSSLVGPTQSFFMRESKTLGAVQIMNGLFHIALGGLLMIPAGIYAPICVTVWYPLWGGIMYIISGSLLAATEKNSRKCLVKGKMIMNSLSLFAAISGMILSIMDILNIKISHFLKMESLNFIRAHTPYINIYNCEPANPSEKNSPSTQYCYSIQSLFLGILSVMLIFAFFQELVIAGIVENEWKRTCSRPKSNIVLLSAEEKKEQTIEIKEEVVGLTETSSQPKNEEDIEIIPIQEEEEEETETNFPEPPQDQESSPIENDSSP

Substance | EC50 (ng/ml) values of direct cell death induction using Z-138 (% total AnnV positive cells)
GA101-hinge del P329G L234A L235A (antibody) | 155 ng/mL
GA101-V11F P329G L234A L235A (antibody) | 131 ng/mL
GA101-V11F P151F (on GA101 P329G L234A L235A backbone) (antibody) | 112 ng/mL
GA101-P151F P329G L234A L235A (antibody) | 133 ng/mL
GA101-V11F P151F hinge del (on GA101 P329G L234A L235A backbone) (antibody) | 171 ng/mL
GA101-P151F hin del (on GA101 P329G L234A L235A backbone) (antibody) | 68.4 ng/mL
